Source: patent publication US20230277618A1 (BROAD INSTITUTE, published 2023)

Target: T1, KIDINS220 (kinase D interacting substrate 220), endogenous in HEK-293T cells (human, UniProt Q9ULH0 1-1771)
T1 construct: whole, on cells; Endogenous protein of the 293 cells, detected by immunoblot after co-immunoprecipitation; also called ARMS; SINO
Test: co-immunoprecipitation by V5 tag from HEK-293T cells, immunoblot for endogenous KIDINS220

T1 sequence (Q9ULH0 whole entry): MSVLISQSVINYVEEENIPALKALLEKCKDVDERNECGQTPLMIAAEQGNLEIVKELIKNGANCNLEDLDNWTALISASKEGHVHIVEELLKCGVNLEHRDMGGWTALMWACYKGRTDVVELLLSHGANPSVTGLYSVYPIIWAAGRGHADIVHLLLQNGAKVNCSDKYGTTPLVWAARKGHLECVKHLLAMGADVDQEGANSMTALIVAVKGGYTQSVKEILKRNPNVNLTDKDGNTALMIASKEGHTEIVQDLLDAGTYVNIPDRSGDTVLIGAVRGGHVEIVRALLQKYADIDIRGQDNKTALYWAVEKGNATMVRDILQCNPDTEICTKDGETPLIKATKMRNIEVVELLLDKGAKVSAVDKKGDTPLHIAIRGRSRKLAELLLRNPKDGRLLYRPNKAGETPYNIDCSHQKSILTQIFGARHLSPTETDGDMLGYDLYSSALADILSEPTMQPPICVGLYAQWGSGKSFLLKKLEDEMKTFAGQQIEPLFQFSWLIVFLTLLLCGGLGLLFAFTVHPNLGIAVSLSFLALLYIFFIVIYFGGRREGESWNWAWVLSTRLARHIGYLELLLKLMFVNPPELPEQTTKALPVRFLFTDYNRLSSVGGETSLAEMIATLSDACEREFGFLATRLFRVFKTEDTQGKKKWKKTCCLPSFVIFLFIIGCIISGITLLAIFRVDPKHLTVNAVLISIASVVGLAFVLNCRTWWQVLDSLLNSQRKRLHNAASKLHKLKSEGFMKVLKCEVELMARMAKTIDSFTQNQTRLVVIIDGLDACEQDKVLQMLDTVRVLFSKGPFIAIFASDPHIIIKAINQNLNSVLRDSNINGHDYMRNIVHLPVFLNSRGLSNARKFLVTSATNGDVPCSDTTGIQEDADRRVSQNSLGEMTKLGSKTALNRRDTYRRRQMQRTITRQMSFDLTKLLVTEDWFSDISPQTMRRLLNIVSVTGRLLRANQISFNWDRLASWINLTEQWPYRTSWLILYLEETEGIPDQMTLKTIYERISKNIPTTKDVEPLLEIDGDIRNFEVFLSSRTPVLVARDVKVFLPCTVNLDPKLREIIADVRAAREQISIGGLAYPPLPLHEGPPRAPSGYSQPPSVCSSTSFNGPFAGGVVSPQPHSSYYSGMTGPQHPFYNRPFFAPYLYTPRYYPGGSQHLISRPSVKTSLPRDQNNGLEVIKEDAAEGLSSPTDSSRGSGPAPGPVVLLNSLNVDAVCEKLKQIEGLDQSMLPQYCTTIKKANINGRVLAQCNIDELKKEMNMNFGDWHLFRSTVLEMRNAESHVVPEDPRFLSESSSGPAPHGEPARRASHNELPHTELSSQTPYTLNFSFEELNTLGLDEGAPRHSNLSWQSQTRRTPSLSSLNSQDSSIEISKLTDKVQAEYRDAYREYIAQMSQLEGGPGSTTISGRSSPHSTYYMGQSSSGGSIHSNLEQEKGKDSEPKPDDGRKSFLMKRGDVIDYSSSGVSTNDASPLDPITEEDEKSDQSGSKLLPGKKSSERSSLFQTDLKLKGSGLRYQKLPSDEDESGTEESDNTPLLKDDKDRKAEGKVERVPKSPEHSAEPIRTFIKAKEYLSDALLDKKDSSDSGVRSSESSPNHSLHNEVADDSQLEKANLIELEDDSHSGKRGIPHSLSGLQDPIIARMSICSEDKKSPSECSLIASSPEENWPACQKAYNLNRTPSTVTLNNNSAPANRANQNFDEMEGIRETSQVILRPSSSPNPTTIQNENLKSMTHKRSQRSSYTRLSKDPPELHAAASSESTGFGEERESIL

B1: XPR1 SPX domain only construct with C-terminal V5 tag (other, human, UniProt Q9UBH6 1-224, looked up, not shown: small tags and cut ends)
chain: MKFAEHLSAHITPEWRKQYIQYEAFKDMLYSAQDQAPSVEVTDEDTVKRYFAKFEEKFFQTCEKELAKINTFYSEKLAEAQRRFATLQNELQSSLDAQKESTGVTTLRQRRKPVFHLSHEERVQHRNIKDLKLAFSEFYLSLILLQNYQNLNFTGFRKILKKHDKILETSRGADWRVAHVEVAPFYTCKKINQLISETEAVVTNELEDGDRQKAMKRLRVPPLG
notes: domain: SPX domain; also called SPX domain only constructs; N-terminal SPX domain of XPR1
- binding result: no binding
